Molecular target: PlyCB R66E mutant (streptococcal bacteriophage (C1)) (UniProt Q7Y3F3)
Assay: SEC

stoichiometry N: 8
Substance: PlyCB R66E mutant (from UniProt Q7Y3F3 1-72) (natural protein)
